The values below come from the supplement of paper PMC9112550, “Optimization of the antimicrobial peptide Bac7 by deep mutational scanning” (BMC Biology, 2022).

In the data set the test system is Escherichia coli TOP10. In words: shrunken log2 fold change of peptide-encoding DNA abundance (4.5 h post-induction vs induction); higher = less antimicrobial activity (less host growth inhibition). The following applies: time post-induction: 4.5 h; library: site-saturation at positions 5, 18, 19, 20.
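Further: peptides expressed intracellularly from a pBAD plasmid library in pooled LB shake-flask culture, induced with 0.3% L-arabinose, DNA abundance read by NGS, three biological replicates, DESeq2 with apeglm shrinkage.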

Turning to RRIRHRPPRLPRPRPRPHTMPRP, the “shrunken log2 fold change” value was -0.0685.

Regarding RRIRRRPPRLPRPRPRPTIYPRP, the “shrunken log2 fold change” value is -0.1.

With RRIRHRPPRLPRPRPRPKPVPRP, the “shrunken log2 fold change” value worked out at 0.239.

RRIRQRPPRLPRPRPRPVKMPRP: the “shrunken log2 fold change” value was -0.211.

Regarding RRIRLRPPRLPRPRPRPFQHPRP, the “shrunken log2 fold change” value is -0.175.

As for RRIRERPPRLPRPRPRPHRWPRP, the “shrunken log2 fold change” value amounted to 0.0978.

For RRIRFRPPRLPRPRPRPMIKPRP, the “shrunken log2 fold change” value was -0.749.

Consider RRIRHRPPRLPRPRPRPMMAPRP, for which the “shrunken log2 fold change” value worked out at 0.183.

As to RRIRRRPPRLPRPRPRPWYHPRP, the “shrunken log2 fold change” value is -0.0689.

On to RRIRWRPPRLPRPRPRPKQDPRP, for which the “shrunken log2 fold change” value stood at 0.00878.

For the sequence RRIRTRPPRLPRPRPRPSIIPRP, the “shrunken log2 fold change” value is -0.647.

Turning to RRIRVRPPRLPRPRPRPKQDPRP, the “shrunken log2 fold change” value is -0.266.

Consider RRIRCRPPRLPRPRPRPNIPPRP, for which the “shrunken log2 fold change” value is -0.822.

For the sequence RRIRTRPPRLPRPRPRPCFNPRP, the “shrunken log2 fold change” value was -0.667.

For the sequence RRIRYRPPRLPRPRPRPNATPRP, the “shrunken log2 fold change” value is -0.222.

Take RRIRWRPPRLPRPRPRPIADPRP: the “shrunken log2 fold change” value turned out to be 0.0247.

Take RRIRYRPPRLPRPRPRPDHYPRP: the “shrunken log2 fold change” value was -0.0219.

Regarding RRIRQRPPRLPRPRPRPIGIPRP, the “shrunken log2 fold change” value was -0.245.

As for RRIRWRPPRLPRPRPRPPLFPRP, the “shrunken log2 fold change” value came to 0.42.

In the case of RRIRIRPPRLPRPRPRPPPEPRP, the “shrunken log2 fold change” value is 0.32.

Turning to RRIRCRPPRLPRPRPRPQTCPRP, the “shrunken log2 fold change” value is 0.034.

With RRIRQRPPRLPRPRPRPIHGPRP, the “shrunken log2 fold change” value was -0.0264.

On to RRIRCRPPRLPRPRPRPTGFPRP, for which the “shrunken log2 fold change” value is -0.135.

Turning to RRIRYRPPRLPRPRPRPPQMPRP, the “shrunken log2 fold change” value came out at 0.0297.

RRIRRRPPRLPRPRPRPLMQPRP: the “shrunken log2 fold change” value stood at 0.396.

As to RRIRNRPPRLPRPRPRPQFHPRP, the “shrunken log2 fold change” value was -0.28.

For the sequence RRIRQRPPRLPRPRPRPGGGPRP, the “shrunken log2 fold change” value was determined as 0.748.

On to RRIRWRPPRLPRPRPRPEEAPRP, for which the “shrunken log2 fold change” value came out at 0.113.

Regarding RRIRVRPPRLPRPRPRPHSFPRP, the “shrunken log2 fold change” value is -0.155.

With RRIRCRPPRLPRPRPRPVDSPRP, the “shrunken log2 fold change” value is 0.176.

For the sequence RRIRYRPPRLPRPRPRPYGVPRP, the “shrunken log2 fold change” value was -0.00992.

For the sequence RRIRARPPRLPRPRPRPHQAPRP, the “shrunken log2 fold change” value is -0.0279.

Turning to RRIRLRPPRLPRPRPRPGHTPRP, the “shrunken log2 fold change” value was determined as 0.183.

With RRIRERPPRLPRPRPRPYMHPRP, the “shrunken log2 fold change” value is -0.232.

In the case of RRIRGRPPRLPRPRPRPMHGPRP, the “shrunken log2 fold change” value is 0.36.

In the case of RRIRHRPPRLPRPRPRPSQLPRP, the “shrunken log2 fold change” value was -0.00148.

For RRIRPRPPRLPRPRPRPSTYPRP, the “shrunken log2 fold change” value is -0.415.

Turning to RRIRHRPPRLPRPRPRPGDIPRP, the “shrunken log2 fold change” value is -0.412.

Consider RRIRKRPPRLPRPRPRPLGTPRP, for which the “shrunken log2 fold change” value came to 0.388.

With RRIRARPPRLPRPRPRPLWEPRP, the “shrunken log2 fold change” value was determined as 0.745.

On to RRIRHRPPRLPRPRPRPYDDPRP, for which the “shrunken log2 fold change” value is -0.00822.

Turning to RRIRPRPPRLPRPRPRPPGEPRP, the “shrunken log2 fold change” value came to 0.00468.

For the sequence RRIRWRPPRLPRPRPRPMVVPRP, the “shrunken log2 fold change” value was 0.026.

As for RRIRARPPRLPRPRPRPVARPRP, the “shrunken log2 fold change” value is 0.647.

As for RRIRWRPPRLPRPRPRPSQQPRP, the “shrunken log2 fold change” value was -0.002.

On to RRIRQRPPRLPRPRPRPQRFPRP, for which the “shrunken log2 fold change” value was -0.0204.

With RRIRGRPPRLPRPRPRPNNTPRP, the “shrunken log2 fold change” value is -0.0658.

As for RRIRTRPPRLPRPRPRPRNGPRP, the “shrunken log2 fold change” value is -0.0659.

With RRIRWRPPRLPRPRPRPMMNPRP, the “shrunken log2 fold change” value is -0.238.

For the sequence RRIRQRPPRLPRPRPRPPYSPRP, the “shrunken log2 fold change” value is -0.224.
